Experimental findings from article doi:10.1101/2021.05.09.442808 (bioRxiv, 2021) are described below.

The target in the test is HKU1 S 2P prefusion-stabilized ectodomain trimer (HCoV-HKU1, isolate  (N5 used), UniProt Q0ZME7, stabilised). The test can be described thus: SPR. In general terms: In SPR one partner is held on a chip, and binding of the other changes the refractive index at the surface.

What is called Kd is the constant that tells how readily two partners part at equilibrium.

B1: S2P6 Fab fragment (Fab, V domains shown)
VH: EVQLVQSGAEVKKPGASVKVSCKASGYTFTSQYMHWVRQAPGQGLEWIGIINPSGVHTSYAQKFQGRVTLTRDTSTSTLYMELSSLRSEDTAVYYCARGSPKGAFDYWGQGTLVTVSS
VL: not shown
B1 showed a Kd of approximately 120 nM.
